This passage reports Kd and dH results from PMC7473855, “An alpaca nanobody neutralizes SARS-CoV-2 by blocking receptor interaction” (Nature Communications, 2020).

Several values for one entry are separate records, joined by “and”; a condition that tells them apart may be missing. Equal entries are not always repeated.

Assay [1] concerns the target T1, SARS-CoV-2 spike receptor-binding domain (RBD) (SARS-CoV-2, UniProt P0DTC2 319-541).
T1 construct: also called monomeric RBD
The assay is described as follows: ITC. The following applies: both partners purified.

Assay [2] concerns the target T1, SARS-CoV-2 spike receptor-binding …. Put plainly: BLI. The following applies: both partners purified.

B1: Ty1 nanobody (VHH)
VHH: QVQLVETGGGLVQPGGSLRLSCAASGFTFSSVYMNWVRQAPGKGPEWVSRISPNSGNIGYTDSVKGRFTISRDNAKNTLYLQMNNLKPEDTALYYCAIGLNLSSSSVRGQGTQVTVSS
As a reminder, the Kd is the equilibrium constant for the complex coming apart. Lower therefore signals a tighter complex. With B1, in assay [1], the affinity, expressed as Kd, was 9 nM and the dH was around -10 kcal/mol.

B2: Ty1 nanobody, biotinylated on the C-terminus (VHH)
VHH: QVQLVETGGGLVQPGGSLRLSCAASGFTFSSVYMNWVRQAPGKGPEWVSRISPNSGNIGYTDSVKGRFTISRDNAKNTLYLQMNNLKPEDTALYYCAIGLNLSSSSVRGQGTQVTVSS
modifications: biotin on the C-terminus (GGGK-biotin joined by Sortase A)
notes: not shown: Sortase recognition site (LPETG), C-terminal, kept
Turning to B2, the Kd in assay [2] was 8 nM and 13 nM.
